By Kd is commonly meant the constant that tells how readily two partners part at equilibrium.

Consider one molecule from paper PMC10331576.

In this assay the target is COVID-2019-Spike-328-585 (RBD) (SARS-CoV-2), P0DTC2. Kind of assay: BLI; […] (HIS1K) […] (50 μM, 31 μM, and 8.8 μM); 30°C, PBS; 1:1 binding model; Octet HTX. The following applies: remark: other sources report otherwise.

B1: DC-SIGN.Fc, Q9NNX6 (Fc fusion)
chain: QVSKVPSSISQEQSRQDAIYQNLTQLKAAVGELSEKSKLQEIYQELTQLKAAVGELPEKSKLQEIYQELTRLKAAVGELPEKSKLQEIYQELTWLKAAVGELPEKSKMQEIYQELTRLKAAVGELPEKSKQQEIYQELTRLKAAVGELPEKSKQQEIYQELTRLKAAVGELPEKSKQQEIYQELTQLKAAVERLCHPCPWEWTFFQGNCYFMSNSQRNWHDSITACKEVGAQLVVIKSAEEQNFLQLQSSRSNRFTWMGLSDLNQEGTWQWVDGSPLLPSFKQYWNRGEPNNVGEEDCAEFSGNGWNDDKCNLAKFWICKKSAASCSRDEEQFLSPAPATPNPPPA
As to B1, the Kd came out at 18.7 µM.
